Series [1] has as its target T1, DENV-1 VLP (envelope protein) (Dengue virus type 1, UniProt P17763 281-775). In words: SPR. The settings on record: protein: commercial; predicted stem-loop.
Series [2] has as its target T1, DENV-1 VLP (envelope protein). Nature of the series: SPR; response lower than DENV-Apt_41. The settings on record: protein: commercial; predicted stem-loop.

The source of these data is publication PMC12429950, “A chimeric RNA consisting of siRNA and aptamer for inhibiting dengue virus replication”.

T1 sequence (P17763 281-775): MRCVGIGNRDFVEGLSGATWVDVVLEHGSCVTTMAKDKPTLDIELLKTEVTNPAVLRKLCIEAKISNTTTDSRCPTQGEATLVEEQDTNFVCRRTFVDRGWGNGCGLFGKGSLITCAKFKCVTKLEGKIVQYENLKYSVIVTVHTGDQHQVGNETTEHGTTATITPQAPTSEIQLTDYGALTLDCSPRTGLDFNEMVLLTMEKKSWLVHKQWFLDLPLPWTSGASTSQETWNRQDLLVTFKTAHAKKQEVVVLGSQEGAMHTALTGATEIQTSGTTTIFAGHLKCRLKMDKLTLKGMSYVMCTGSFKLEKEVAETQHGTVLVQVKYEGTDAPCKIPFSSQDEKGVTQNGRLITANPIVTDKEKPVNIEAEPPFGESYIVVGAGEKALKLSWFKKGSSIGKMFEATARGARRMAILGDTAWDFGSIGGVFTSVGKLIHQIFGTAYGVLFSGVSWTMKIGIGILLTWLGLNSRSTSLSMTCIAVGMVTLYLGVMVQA

In the case of GGGUAAUUUGUUUUACUGGGGGGUUAACCUAACAAGUGCCC (XNA, 2'-fluoro C and U) [DENV-Apt_41], the binding result in series [1] is “binds”.

B1: DENV-Apt (XNA)
RNA: GGGUCUUGUUUCUUCUCUGUGUGUAAUUUGUUUUACUGGGGGGUUAACCUAACAAGUGCACACUCGUCACACACUCACAUC
modifications: 2'-fluoro C and U
Consider B1, for which the binding result in series [2] is “binds”.
